Laboratory results: the DeepSol protein solubility set

assay: soluble on expression in E. coli; label from the status in PepcDB or PDB records

Sequence | soluble on expression in E. coli
MSLAIPTRNEVSDDLKWDLSRVFKDDQEWEQEYNRVAIEIKNLGRFKGNLAKSGQDLYEGITEILSVNRRLEKVYVYATMSSDVDTSNTHYLGLVAKAQSLANQMSAAISFVDPEILSIPEETLAKFMQDEPRLKEYQHRLEQITKKRPHTLPASEEKIIAAAGDAMGTSANTFNVLTNSDMEYGYVQDEDGEMVQLSDGLYSLLIQSQDRNVRKNAFDVMYASYGQFENSLASTLSGEVKAHNFNAQVHKYNSAREAALSENGVPTAVYDTLVKEVNSHLNLLHRYVSLRKKILGLSDLQMYDMYVPLTGEPSLSYNFEEAKNEARRALAPLGKDYLEHVDYIFNNRVIDVVESQNKVTGAYSGGSYDTDPYELLNWEDNLDSLYTLVHETGHSVHSWYTRNTQPYVYGDYPIFVAEIASTTNENILTEYFLDKITDPKTRAFVLNHYLDSFKGTLFRQTQFAEFEQFIHEADANGQPLTADVLDEFYGNLNQRYYGDSVEPGGEIAKEWARIPHFYYNFYVYQYATGFAAATALANNVVHGTDKERTAYINFLKAGSSDYPTEIMKRAGVDMTKADYLKDAFNTFEERLNEFEKIVDELKTEGHHHHHH | soluble
MGSDKIHHHHHHMIKMRIKPLEEYRIGLRQSSGIVIENVDVISAFPSPTTILGIIGAMKNAKPSQLSGIDDLREAYTSLTGNNTLSGDCDSSDNPLIWGPLIKEKDNKIYTPLFFNKLILDPIEYVKTSLNENVKVQSESLVKEIGIQIRRMNQMNRGSRNTIHLFYQKFFGSNYELEYCINIDDLKKLVKENVVALGGENRYARVRIDNGNCNFGNGNYAILLQPLLFESDSEYFVRLDNVKGLGCIDEIYGVLVEKGNKIDFNNFKVKVVYYALGYGNERRPMLQALPPGTVIKVKETCNNAKALGLLSELGFGAIYRVDPGNR | not soluble
MEDHSSSIAVHKLDGDLLLRTAEIGDADMIAAYFQSNRDYLKPFEPKREEAFFSVNGWLQKLIKLNELHRMGLGYYCLLIHVDT | not soluble
MSRLEIYSPEGLRLDGRRWNELRRFESSINTHPHAADGSSYMEQGNNKIITLVKGPKEPRLKSQMDTSKALLNVSVNINKFSKFERSKSSHKNERRVLEIQTSLVRMFEKNVMLNIYPRTVIDIEIHVLEQDGGIMGSLINGITLALIDAGISMFDYISGISVGLYDTTPLLDTNSLEENAMSTVTLGVVGKSEKLSLLLVEDKIPLDRLENVLAIGIAGAHRVRDLMDEELRKHAQKRVSNASAR | soluble
SQVARWLGLDIPSPPIGSLFGVEIPEETGTKLEERVVDASMLSHGDLLMNLSLRDEELVILVRRGEGYRVPKGRMHLQVGDVLLIVSEKNLSQTLTSGDPENHPGLLQRLKHRLLRR | not soluble
MRSFIIFSTLLVILVQCGYPVAENSYPTTPSYPTPPPSYPTPKKYPVAPTYPSTPSYSAPPAQSAYSSSDNQEDTESESVTGAASTSEYRKRAKARTAHNRQFQRRALQPIKRFQQKKQ | not soluble
MGSDKIHHHHHHMTVQQFIKKLVRLVELERNAEINAMLDEMKRLSGEEREKKGRAVLGLTGKFIGEELGYFLVRFGRRKKIDTEIGVGDLVLISKGNPLKSDYTGTVVEKGERFITVAVDRLPSWKLKNVRIDLFASDITFRRQIENLMTLSSEGKKALEFLLGKRKPEESFEEEFTPFDEGLNESQREAVSLALGSSDFFLIHGPFGTGKTRTLVEYIRQEVARGKKILVTAESNLAVDNLVERLWGKVSLVRIGHPSRVSSHLKESTLAHQIETSSEYEKVKKMKEELAKLIKKRDSFTKPSPQWRRGLSDKKILEYAEKNWSARGVSKEKIKEMAEWIKLNSQIQDIRDLIERKEEIIASRIVREAQVVLSTNSSAALEILSGIVFDVVVVDEASQATIPSILIPISKGKKFVLAGDHKQLPPTILSEDAKDLSRTLFEELITRYPEKSSLLDTQYRMNELLMEFPSEEFYDGKLKAAEKVRNITLFDLGVEIPNFGKFWDVVLSPKNVLVFIDTKNRSDRFERQRKDSPSRENPLEAQIVKEVVEKLLSMGVKEDWIGIITPYDDQVNLIRELIEAKVEVHSVDGFQGREKEVIIISFVRSNKNGEIGFLEDLRRLNVSLTRAKRKLIATGDSSTLSVHPTYRRFVEFVKKKGTYVIF | not soluble
MGGFGVGKTTMVGSVSEIRPLTTEETMTQAGIGVDDNYGSASKTATTVAMDFGRISITDELVLYLFGTPGQERFWFLWNGLFEGALGAVVLVDTRRLEVSFDVMGRLEERGVPFVVAVNTFPDAPRYPVAELRTALDLPEEIPILDCDVRRRASSRDVLMTLMRLLHSLAMKGALTLEHHHHHH | not soluble
PEMKIVMTSTTEVMEEVLVVAYGTAKKSAFTGSAKMIHTEQITKRPVTNVIESLSGQVAGLQMTMTNGQPGETPSILIRGISSMSAKTDPLIVLDGMPYEGGWNNINPADVESISVLKDAASTALYGARGANGVIIITTKSAKAGD | not soluble
MWLDRRGWLRVLGHWRYDLRRPSFTRTWSGDKGPMAETVSTQVGTEGGLRASHQQNGDAGGDAKVELSPGPPKPAGREVEPAPVGGEHPSAAAPGPGKHKKRRGATRERVVPPPKKRRTGVSFGDEHFAETSYYFEGGLRKVRPYYFDFRTYCKGRWVGHSLLHVFSTEFRAQPLAYYEAAVRAGRLQLNEKPVQDLNIVLKDNDFLRNTVHRHEPPVTAEPIRLLAENEDVVVVDKPSSIPVHPCGRFRHNTVIFILGKEHQLKELHPLHRLDRLTSGVLMFAKTAAVSERIHEQVRDRQLEKEYVCRVEGEFPTEEVTCKEPILVVSYKVGVCRVDPRGKPCETVFQRLSYNGQSSVVRCRPLTGRTHQIRVHLQFLGHPILNDPIYNSVAWGPSRGRGGYIPKTNEELLRDLVAEHQAKQSLDVLDLCEGDLSPGLTDSTAPSSELGKDDLEELAAAAQKMEEVAEAAPQELDTIALASEKAVETDVMNQETDPLCAECRLVRQDPLPQDLVMFLHALRYKGPGFEYFSPMPAWAQDDWQKD | soluble
MGSDKIHHHHHHMKSFQLVATAASGLEAIVGKEVARLGYDPKVENGKVYFEGDLSAIARANLWLRVADRVKIVVGVFKATTFDELFEKTKALPWEDYLPLDAQFPVAGKSVKSTLYSVPDCQAIVKKAIVNRVSEKYRRSGRLMETGALFKLEVSILKDEVTLTIDTSGAGLHKRGYRLAQGSAPIKETMAAALVLLTSWHPDRPFYDPVCGSGTIPIEAALIGQNIAPGFNREFVSETWDWMPKQVWADARQEAEDLANYDQPLNIIGGDIDARLIEIAKQNAVEAGLGDLITFRQLQVADFQTEDEYGVVVANPPYGERLEDEEAVRQLYREMGIVYKRMPTWSVYVLTSYELFEEVYGKKATKKRKLYNGYLRTDLYQYWGPRKPRPKKED | not soluble
MGSDKIHHHHHHMNIQTFMLPSQKVSPELEILHADLQTEGQHPPILFLHGYTSGAWQFAQHWMPTLQANGWQSFALNLRGHGGSAGRETVTTARFLDYADDVARAIAYVRGQTDQTPILIGHSLGSVLARHYAAEHSVPGLGLLITIGMQGFMGWMMKRYPLQGMAGMMTGRPSAMFAKFGPQYDVMYAGHNKETVRGNVERLMAQPDSDKVFMDLSKLKLGLPAKSTPTFVMAGTRDPIASVESVEALGRSYAVEPVMLQDKAHDIVAGPDWNDGLQHLQAWLETAKF | not soluble
MAMQFVMRLAREFRRADWRRMLSDMSATELGEWGDYFRMQSFSDVWMDAQFASLKALIVRMVSGSSDAAVADFSLLPEENGIPERTDEELMHLGEGISGGVRYGPDSQPGHLEHHHHHH | not soluble
MTEQMWIEKLGLEAHPEGGYFKQTNKSEQLIPTKRGERALHTAILFLLNTESPSHFHRLKADELWFFHDGQPLTVHCIFPDGTYQAVQLGKDLVQGQQLSFSVPAGTIFGSTVATGFALVSCVVTPGFEFEDFELFTQAELLNDYPQHSEIIQHLAYRELPLEHHHHHH | soluble
MRDIVIIGHKAKTSGDFSLNDLPGSAGRMDILCRCVSSALFLSFGMRRDVNVHLLLLGEPDPGKIIRFEGLHLRYLNPDERSSGSLIQKALLKNAAGQDIRSTPGVWTRTGDLNSLLASFEGRTLLYLREDGKDFREIAREIQDPVFILGDHTGVTEEEEKQLLEAGAQVISVGPISLHSNHCITLIHNELDRAEAERGEIPGGNISRPED | not soluble
MKTVMATGTFDIIHPGHGFFLEEARKLGGEDARLVVVLARDSTVRARKRTPIVGEKQRLEVVRMLKPVDEAYLGSETDMFEIVHRIKPDIIAIGPDQKFDVDELRDELRRRGLGCEVRRIEKYRDAELDSTCKIIKRIRSMEFDEDSLKNC | not soluble
MSLSEELQQKLRDQLWEVANRLRGNMSASDFMYFTLGFIFYKYLSEKIEKYANNALADDDITFKELWETDDADAIELQEEAKNQCLENIGYFIEPQFLFSSVIEAIKRKENILPMLERSLKRIEDSTLGQDSEDDFGGLFSDIDLASPKLGKTADDKNTLVSNVLLALDDINFGLEASQEIDILGDAYEYMISQFAAGAGKKAGEFYTPQEVSRILAEIVAIGHQRLRNVYDPTCGSGSLLLRAASIGNAVDIYGQEKNPTTYNLARMNMLLHGIRFSNFKIENGDTLEWDAFGDTQFDAVVANPPFSAEWSAADKFNTDDRFSKAGRLAPRKTADYAFILHMIYHLNEGGTMACVAPHGVLFRGNAEGVIRRFLIEKKNYVDAIIGLPANIFYGTSIPTCILVFKKCRKEDDNILFIDASKEFEKVKTQNKLREQHIQKIVETYRDRKEIEKYSHLASLQEIAENDYNLNIPRYVDTFEEEEPIDIKAVMAEIKELEAKRAELDKEIEVYLKELGIVEEGHHHHHH | soluble
MTEVRRRGRPGQAEPTAQKGAQALERGIAILQYLERSGGSSSVSDISGSLDLPLSTTFRLLKVLQAADFVYQDSQLGWWHIGLGVFNVGSAYIHNRDVLSVAGPFMHRLMLLSGETVNVAIRNGNEAVLIGQKECKSMVRMCAPLGSRLPLHASGAGKALLYPLTEEELVGIVVNTGLRRFTPTTLVDLPILLKNLEQAREQGYTVDQEEHVVGLNCIASAIYDDAGSVVAAISISGPASRLTEDRFISQGELVRDTAKDISTALGLKPPVA | not soluble
MGSDKIHHHHHHMLGLKLPTDPRWVEIVETNIPEILTDHAYCEQKATTNAMYIVINFPEYTELVSDMIDLAQEELQHFKMVHDIIKKRGLVLGRARAAPYAGDIYAFMRKGHIRKYVLIDRLLFSALIEARSCERFRLLSEQISDPELKEFYRELMISEATHYTTFINYARKYSEGEDIDKRWQEFLAYEATVISKYGDNATMHG | not soluble
MELRVGNRYRLGRKIGSGSFGDIYLGTDIAAGEEVAIKLECVKTKHPQLHIESKIYKMMQGGVGIPTIRWCGAEGDYNVMVMELLGPSLEDLFNFCSRKFSLKTVLLLADQMISRIEYIHSKNFIHRDVKPDNFLMGLGKKGNLVYIIDFGLAKKYRDARTHQHIPYRENKNLTGTARYASINTHLGIEQSRRDDLESLGYVLMYFNLGSLPWQGLKAATKRQKYERISEKKMSTPIEVLCKGYPSEFATYLNFCRSLRFDDKPDYSYLRQLFRNLFHRQGFSYDYVFDWNMLKFGASRAADDAERERRDREERLRHSRNPATRGLPSTASGRLRGTQEVAPPTPLTPTSHTANTSPRPVSGMERERKVSMRLHRGAPVNISSSDLTGRQDTSRMSTSQIPGRVASSGLQSVVHR | not soluble
VGTRSKSRTRQLKQSNGCTATTSGASDRRRRARRRTAPAWLREDEWLRHHLPHPPRQLSRCLHRRRRSACHHRYSRRTPKGGLPMTSSLVPISEARAHLSRLVRESADDDVVLMNHGRPAAILISAERYESLMEELEDLRDRLSVHEREHVTMPLDKLGAELGVDIGRV | not soluble
